These results are taken from patent US20180086816A1.

In this assay the target is prolactin-receptor on NB2-11 cells (rat lymphoma cells) (rat (NB2-11 rat lymphoma cells)) (UniProt P05710). Kind of assay: cell-based or functional assay.
Sequence of UniProt P05710 (P05710 20-610): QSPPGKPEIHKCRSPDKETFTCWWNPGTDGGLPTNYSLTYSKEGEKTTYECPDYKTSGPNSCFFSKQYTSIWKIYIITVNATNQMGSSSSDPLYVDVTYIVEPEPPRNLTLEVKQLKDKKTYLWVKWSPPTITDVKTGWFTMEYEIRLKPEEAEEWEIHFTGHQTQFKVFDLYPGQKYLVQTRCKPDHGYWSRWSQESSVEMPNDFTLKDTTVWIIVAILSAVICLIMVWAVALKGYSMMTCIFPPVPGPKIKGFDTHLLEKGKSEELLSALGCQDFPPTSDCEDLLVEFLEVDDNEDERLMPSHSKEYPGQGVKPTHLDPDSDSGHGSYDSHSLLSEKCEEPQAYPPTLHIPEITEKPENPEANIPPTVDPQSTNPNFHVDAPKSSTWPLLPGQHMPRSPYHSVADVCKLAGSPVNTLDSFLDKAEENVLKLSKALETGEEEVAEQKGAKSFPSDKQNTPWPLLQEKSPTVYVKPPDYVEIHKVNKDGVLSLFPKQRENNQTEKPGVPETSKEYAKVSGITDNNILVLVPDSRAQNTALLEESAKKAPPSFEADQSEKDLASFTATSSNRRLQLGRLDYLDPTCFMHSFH

In turn, “CTP modified hGH (hGH with one CTP at the N terminus and two CTP at the C terminus, expressed in HeLa cells) (from UniProt P0DN86 138-165; P01241 27-217; P0DN86 138-165; P0DN86 138-165)” displayed an NB2-11 cell proliferation, WST formazan absorbance (OD), dose response 0.039 of 593; an NB2-11 cell proliferation, WST formazan absorbance (OD), dose response 0.059 of 684; an NB2-11 cell proliferation, WST formazan absorbance (OD), dose response 0.088 of 858; an NB2-11 cell proliferation, WST formazan absorbance (OD), dose response 0.132 of 1050. In addition, the NB2-11 cell proliferation, WST formazan absorbance (OD), dose response 0.198 came to 1290; the NB2-11 cell proliferation, WST formazan absorbance (OD), dose response 0.296 is 1570; the NB2-11 cell proliferation, WST formazan absorbance (OD), dose response 0.444 worked out at 1800; the NB2-11 cell proliferation, WST formazan absorbance (OD), dose response 0.667 turned out to be 1970. This substance came in with an NB2-11 cell proliferation, WST formazan absorbance (OD), dose response 1 of 2110.
